Results reported in patent EP4299124A1 (UNIVERSITE DE MONTPELLIER, dated 2024).

B1: IGF-1201 (IGF-1168 GS IGF-1159) (bispecific antibody)
chain: QVQLVQSGGGLVQAGGSLRLSCAASVRFFSINTMGWYRQAPGKQRELVADITSSGSTNYADSGKGRFTISRDNAKNTVYLQMNRLKPEDTAVYYCHADYKYTTHNTAWGQGTQVTVSSGGGGSGGGGSGGGGSQVQLVQSGGGLVQAGGSLRLSCAASGRTFSSFAMAWFRQAPGKEREFVAAISWSGSTGHADSVKGRFTITRDNAKNTVFLQMNSLKPEDTAVYYCALGKGSSYYYSPSGYDYWGQGTQVTVSS
B2: biparatopic IGF1202 (construct IGF1168-linker sequence L1-IGF1159) (bispecific antibody)
chain: QVQLVQSGGGLVQAGGSLRLSCAASVRFFSINTMGWYRQAPGKQRELVADITSSGSTNYADSGKGRFTISRDNAKNTVYLQMNRLKPEDTAVYYCHADYKYTTHNTAWGQGTQVTVSSEPKIPQPQPKPQPQPQPQPQPKPQPKPEPQVQLVQSGGGLVQAGGSLRLSCAASGRTFSSFAMAWFRQAPGKEREFVAAISWSGSTGHADSVKGRFTITRDNAKNTVFLQMNSLKPEDTAVYYCALGKGSSYYYSPSGYDYWGQGTQVTVSSLEHHHHHH
B3: IGF-1251 (IGF-1159 GS IGF-1168) (bispecific antibody)
chain: QVQLVQSGGGLVQAGGSLRLSCAASGRTFSSFAMAWFRQAPGKEREFVAAISWSGSTGHADSVKGRFTITRDNAKNTVFLQMNSLKPEDTAVYYCALGKGSSYYYSPSGYDYWGQGTQVTVSSGGGGSGGGGSGGGGSQVQLVQSGGGLVQAGGSLRLSCAASVRFFSINTMGWYRQAPGKQRELVADITSSGSTNYADSGKGRFTISRDNAKNTVYLQMNRLKPEDTAVYYCHADYKYTTHNTAWGQGTQVTVSS
B4: IGF-1252 (IGF-1159 HcAb IGF-1168) (bispecific antibody)
chain: QVQLVQSGGGLVQAGGSLRLSCAASGRTFSSFAMAWFRQAPGKEREFVAAISWSGSTGHADSVKGRFTITRDNAKNTVFLQMNSLKPEDTAVYYCALGKGSSYYYSPSGYDYWGQGTQVTVSSEPKIPQPQPKPQPQPQPQPQPKPQPKPEPQVQLVQSGGGLVQAGGSLRLSCAASVRFFSINTMGWYRQAPGKQRELVADITSSGSTNYADSGKGRFTISRDNAKNTVYLQMNRLKPEDTAVYYCHADYKYTTHNTAWGQGTQVTVSS
B5: IGF-1159 nanobody (VHH)
VHH: QVQLVQSGGGLVQAGGSLRLSCAASGRTFSSFAMAWFRQAPGKEREFVAAISWSGSTGHADSVKGRFTITRDNAKNTVFLQMNSLKPEDTAVYYCALGKGSSYYYSPSGYDYWGQGTQVTVSS
B6: IGF-1261 (IGF-1168 GS IGF-1168) (VHH)
chain: QVQLVQSGGGLVQAGGSLRLSCAASVRFFSINTMGWYRQAPGKQRELVADITSSGSTNYADSGKGRFTISRDNAKNTVYLQMNRLKPEDTAVYYCHADYKYTTHNTAWGQGTQVTVSSGGGGSGGGGSGGGGSQVQLVQSGGGLVQAGGSLRLSCAASVRFFSINTMGWYRQAPGKQRELVADITSSGSTNYADSGKGRFTISRDNAKNTVYLQMNRLKPEDTAVYYCHADYKYTTHNTAWGQGTQVTVSS
notes: Used His-tagged in the assay
B7: IGF-1262 (IGF-1168 HcAb IGF-1168) (VHH)
chain: QVQLVQSGGGLVQAGGSLRLSCAASVRFFSINTMGWYRQAPGKQRELVADITSSGSTNYADSGKGRFTISRDNAKNTVYLQMNRLKPEDTAVYYCHADYKYTTHNTAWGQGTQVTVSSEPKIPQPQPKPQPQPQPQPQPKPQPKPEPQVQLVQSGGGLVQAGGSLRLSCAASVRFFSINTMGWYRQAPGKQRELVADITSSGSTNYADSGKGRFTISRDNAKNTVYLQMNRLKPEDTAVYYCHADYKYTTHNTAWGQGTQVTVSS
notes: Used His-tagged in the assay

target: T1, rat mGlu2 SNAP-tagged receptor (rat, UniProt P31421 19-872, SNAP tag labelled with SNAP-Lumi4-Tb); experiment: cell-based or functional assay
T1 sequence (P31421 19-872): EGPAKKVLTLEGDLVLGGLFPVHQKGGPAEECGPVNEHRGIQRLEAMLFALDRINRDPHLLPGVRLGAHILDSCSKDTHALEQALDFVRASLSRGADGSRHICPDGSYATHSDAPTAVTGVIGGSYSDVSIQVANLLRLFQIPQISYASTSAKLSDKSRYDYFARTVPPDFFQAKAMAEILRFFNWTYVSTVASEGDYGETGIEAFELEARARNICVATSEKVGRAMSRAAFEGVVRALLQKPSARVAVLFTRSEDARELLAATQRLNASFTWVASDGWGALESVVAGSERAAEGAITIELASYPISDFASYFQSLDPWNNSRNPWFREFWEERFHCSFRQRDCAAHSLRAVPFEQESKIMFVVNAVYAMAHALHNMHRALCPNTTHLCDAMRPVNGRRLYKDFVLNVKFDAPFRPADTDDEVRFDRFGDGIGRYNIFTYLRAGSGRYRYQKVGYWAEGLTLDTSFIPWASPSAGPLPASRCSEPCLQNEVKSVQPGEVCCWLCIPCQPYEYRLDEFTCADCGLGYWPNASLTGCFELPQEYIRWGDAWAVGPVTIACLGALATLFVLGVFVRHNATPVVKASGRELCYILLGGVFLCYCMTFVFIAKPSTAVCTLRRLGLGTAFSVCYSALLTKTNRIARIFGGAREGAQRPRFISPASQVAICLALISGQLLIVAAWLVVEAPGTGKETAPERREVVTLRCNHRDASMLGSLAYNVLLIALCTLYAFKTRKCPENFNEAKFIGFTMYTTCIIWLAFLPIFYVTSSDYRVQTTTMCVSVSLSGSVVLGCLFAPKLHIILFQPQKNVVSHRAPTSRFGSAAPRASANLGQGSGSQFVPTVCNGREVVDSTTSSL

| Binder | PAM effect G protein coupling, pEC50 |
| --- | --- |
| B1 | 8.25 pEC50 |
| B2 | 8.81 pEC50 |
| B3 | 7.65 pEC50 |
| B4 | 7.94 pEC50 |
| B5 | 6.96 pEC50 |
| B6 | 7.62 pEC50 |
| B7 | 7.2 pEC50 |

target: T1, rat mGlu2 SNAP-tagged receptor; experiment: TR-FRET on HEK-293 cells with SNAP-tagged rat mGlu2, anti-6His-d2; active conformation

| Binder | pKd |
| --- | --- |
| B1 | 9.34 pKd |
| B2 | 9.27 pKd |
| B3 | 8.99 pKd |
| B4 | 8.77 pKd |
| B5 | 8.46 pKd |
| B6 | 8.51 pKd |
| B7 | 8.23 pKd |

target: T1, rat mGlu2 SNAP-tagged receptor; experiment: TR-FRET on HEK-293 cells with SNAP-tagged rat mGlu2, anti-6His-d2; inactive conformation

| Binder | pKd |
| --- | --- |
| B1 | 8.95 pKd |
| B2 | 8.87 pKd |
| B3 | 8.54 pKd |
| B4 | 8.49 pKd |
